Reference: US8030048B2, “Enantioselective epoxide hydlrolase and method for preparing and enantiopure epoxide using the same” (Korea Ocean Research and Development Institute, priority 2005, dated 2011)
Several values for one entry are separate records, joined by “and”; a condition that tells them apart may be missing. Identical values can stand only once.

How the values were obtained:
[1] = substrate: c1ccc([C@@H]2CO2)cc1; experiment: Kinetic parameters of purified rEEH by GC analysis with (R)- or (S)-styrene oxide; format: biochemical, Rhodobacterium sp. HTCC2654; settings: other: 100 mM potassium phosphate pH 8.0, 30° C.
Method: (§1) Kinetic parameters of the rEEH1, rEEH2, rEEH3, sEEH, nEEH, and rEEH were determined by a GC analysis using (R)- or (S)- styrene oxide substrate. 100 ul of purified EHases were mixed with various concentrations of (R)- or (S)- styrene oxide in a 10 ml tube containing 1 ml of potassium phosphate buffer (100 mM, pH 8.0), and shake-incubated at 200 rpm and a temperature of 30° C. The extraction mixtures were extracted with 2 ml of hexane, and enantiomeric excess [ee; ee=100×(S−R)/(S+R)] toward enantiopure styrene oxide was analyzed with a chiraldex gamma-cyclodextrin trifluoroacetyl(G-TA) capillary GC column. Wherein, the FIG. 8 was diagramed with GC analysis for the hydrolyzing activities of enantioselective EHases (rEEH1, rEEH2, and rEEH3) toward racemic styrene oxide.
(§2) Kinetic parameters were estimated by non-linear regression analysis using a Sigma Plot program, and various substrates as depicted in FIG. 1 were also tested for the enantioselective hydrolyzing activity by rEEH1, rEEH2, rEEH3, sEEH, nEEH, and rEEH.

[2] = substrate: c1ccc([C@H]2CO2)cc1; experiment: as above; format: biochemical, Rhodobacterium sp. HTCC2654; settings: other: 100 mM potassium phosphate pH 8.0, 30° C.
Method: as §1, §2

[3] = Enantioselective hydrolyzing activity of purified EHases toward SO; format: biochemical; settings: for enantiomer preference in hydrolysis of styrene oxide, in words: purified enzyme
Method: as §1, §2

[4] = Optimum activity conditions of sEEH, nEEH and rEEH; format: biochemical
Method: After cloning the genes into pET-24a (+) expression vector, the vector was introduced into BL21-CondonPlus(DE3)-RP (Novagen), and then separated by SDS-PAGE. […] Also, the optimum activities of sEEH, nEEH, and rEEH occurred at neutral pH and mesophilic conditions (30 to 40° C.).

[5] = Enantioselective hydrolyzing activity of purified EHases toward EB; format: biochemical
Method: as §1, §2

[6] = substrate: c1ccc([C@@H]2CO2)cc1; experiment: Kinetic parameters of purified rEEH3 by GC analysis with (R)- or (S)-styrene oxide; format: biochemical, Erythrobacter litoralis HTCC2594; settings: other: 100 mM potassium phosphate pH 8.0, 30° C.
Method: as §1, §2

[7] = substrate: c1ccc([C@H]2CO2)cc1; experiment: as above; format: biochemical, Erythrobacter litoralis HTCC2594; settings: other: 100 mM potassium phosphate pH 8.0, 30° C.
Method: as §1, §2

[8] = Kinetic parameters of purified EHases by GC analysis, (R)-styrene oxide; format: biochemical; settings: (R)-enantiomer of styrene oxide, Table 5
Method: as §1, §2

[9] = Enantioselective hydrolyzing activity of purified EHases toward ECH; format: biochemical
Method: as §1, §2

[10] = Kinetic parameters of purified EHases by GC analysis, (S)-styrene oxide; format: biochemical; settings: (S)-enantiomer of styrene oxide, Table 5
Method: as §1, §2

[11] = Enantioselective hydrolyzing activity of purified EHases toward EX; format: biochemical
Method: as §1, §2

[12] = Substrate selectivity of rEEH1, rEEH2 and rEEH3 toward various epoxide substrates; format: biochemical; settings: purified enzyme
Method: Also, the substrate selectivity of rEEH1, rEEH2 and rEEH3 toward various epoxide substrates depicted in FIG. 1 was same to Table 4.
as §2

[13] = Effects of pH and temperature on the EHase activity of rEEH1, rEEH2 and rEEH3; format: biochemical
Method: The effect of pH on the EHase activity was measured with 50 mM sodium acetate-acetic acid buffer (pH 4.0 and 6.0), 50 mM MES buffer (pH 6.0 to 7.0), 50 mM Phosphate buffer (pH 7.0 to 9.0), and 50 mM Glycine buffer (pH 9.0 and 10.0), and the optimum reaction temperature on the EHase activity was measured over a temperature of range from 10 to 70° C. at pH 7.5.

[14] = Enantioselective hydrolyzing activity of purified EHases toward GPE; format: biochemical
Method: as §1, §2

B1: Rhodobacterium sp. HTCC2654 epoxide hydrolase rEEH (RH), SEQ ID NO: 32 (Maritimibacter alkaliphilus HTCC2654) (protein)
chain: MNDKTFIETNGIRLATRIEGDGPLVILVHGFPETAYSWRKQASPLVEAGYRVCIPDVRGYGNSDAPEAVSAYAMEVMTRDFLGLAQALSEVPAVIVGHDWGAPLAWNTARLFPEQFRAVAGLSVPYAPPGDVAPIDLYHKLFTDKGRFFYQVYFQDEGVAEAELEADVEDSLAKFYYAWSGDCPPNGWPNDKAHGDPVLKGLPRPDLPLPWLTQDDLDRYAADFRTSGFRGPLNRYRNQREDHAFLKAHPSNPIIQQPSLFLYGDRDPVLTMFRTPPEDLLPKTLADLRGVHRLPGVGHWTQQEAPEAVNKALIDWLATL
notes: soluble-EH-like alpha/beta hydrolase
For B1, which Km [1] is on record?
The Km was 5.2 ± 0.3 mM.

And the Vmax [1]?
The Vmax was 54.1 µmol/min/mg.

What about the kcat [1] of the same molecule?
The kcat was 32 s⁻¹.

What about the kcat/Km [1] of the same molecule?
Its kcat/Km is 6160 M⁻¹ s⁻¹.

And the Km [2]?
The Km was 4.1 ± 0.3 mM.

What about the Vmax [2] of the same molecule?
The Vmax was 11.3 µmol/min/mg.

What about the kcat [2] of the same molecule?
Its kcat is 6.7 s⁻¹.

And the kcat/Km [2]?
Its kcat/Km is 1630 M⁻¹ s⁻¹.

And the “enantiomer preference in hydrolysis of styrene oxide, in words” value (“enantiomer preference in hydrolysis” for short) [3]?
The value was “hydrolyzed (R)-enantiopure styrene oxide”.

What about the optimum temperature [4] of the same molecule?
The optimum temperature was 30-40 °C.

B2: Erythrobacter litoralis HTCC2594 epoxide hydrolase rEEH3 (EEH3), SEQ ID NO: 17 (Erythrobacter litoralis HTCC2594) (protein)
chain: MPDPASGIAINRVPANGLEFEVAMAGEGDHLALMLHGFPELHFSWRHQMPLLAEMGYRVWAPNMRGYGETTRPTEVRDYALDHLTQDVAALIDASGATKVTLIAHDWGAIIAWYFAILKLRPLERLVIMNVPHPKVLQRELRRWEQIKKSWYVFFFQLPWLPEKRIGADSGKRIGELFAQTSCNPERFGPDVKAVYAAGAARPGAPRAMVNYYRAAMRHRDTIDPGDFRVDVPTLLVWGEEDVALNIRCTEGTEQWVPDITVKRLPNVSHWVQQDAPDEVNAILREWLPKPAPAS
notes: as for B1
For B2, which “Hydrolysis rate EB (R)” value ([5]; (R)-enantiomer) is on record?
The value was 0.08 (×10^−2) mg/min.

And the “Hydrolysis rate EB (S)” value ([5]; (S)-enantiomer)?
The value was 0.11 (×10^−2) mg/min.

What about the Km [6] of the same molecule?
The Km was 2.61 mM and 2.6 mM.

And the Vmax [6]?
Its Vmax is 0.29 µmol/min and 0.2 µmol/min.

And the kcat [6]?
The kcat was 4.3 s⁻¹.

And the Km [7]?
The Km was 3.71 mM and 3.7 mM.

What about the Vmax [7] of the same molecule?
The Vmax was 0.43 µmol/min and 0.4 µmol/min.

What about the kcat [7] of the same molecule?
Its kcat is 6.5 s⁻¹.

What about the “kcat Km” value [8] of the same molecule?
The value was 1600 M⁻¹ s⁻¹.

And the “Hydrolysis rate SO (R)” value ([3]; (R)-enantiomer)?
The value was 0.10 (×10^−2) mg/min.

What about the “Hydrolysis rate SO (S)” value ([3]; (S)-enantiomer) of the same molecule?
Its value is 0.14 (×10^−2) mg/min.

What about the “enantiomer preference in hydrolysis” value [3] of the same molecule?
The value was “(S)-styrene oxide was hydrolyzed faster than (R)-styrene oxide”.

And the “Hydrolysis rate ECH (R)” value ([9]; (R)-enantiomer)?
Its value is 0.26 (×10^−2) mg/min.

And the “Hydrolysis rate ECH (S)” value ([9]; (S)-enantiomer)?
The value was 0.28 (×10^−2) mg/min.

What about the “kcat Km” value [10] of the same molecule?
Its value is 1700 M⁻¹ s⁻¹.

And the “Hydrolysis rate EX (R)” value ([11]; (R)-enantiomer)?
The value was 0.17 (×10^−2) mg/min.

What about the “Hydrolysis rate EX (S)” value ([11]; (S)-enantiomer) of the same molecule?
Its value is 0.09 (×10^−2) mg/min.

What about the “substrate selectivity, in words” value [12] of the same molecule?
The value was “hydrolyzed enantioselectively aliphatic epoxides at C-1 position and styrene oxide”.

And the “optimum temperature (maximum hydrolysis rate)” value ([13]; 10 to 70° C. at pH 7.5)?
Its value is 45 °C.

And the “optimum pH” value ([13]; activity toward styrene oxide, pH 4.0 to 10.0)?
The value was 8.0.

What about the “Hydrolysis rate GPE (R)” value ([14]; (R)-enantiomer) of the same molecule?
The value was 0.10 (×10^−2) mg/min.

And the “Hydrolysis rate GPE (S)” value ([14]; (S)-enantiomer)?
Its value is 0.10 (×10^−2) mg/min.

B3: sEEH: 49 kDa epoxide hydrolase purified from Sphingopyxis alaskensis, SEQ ID NO: 28 (protein, listed as Erythrobacter litoralis)
chain: MSPAKSISLRRLLSTAISVAALGMTLQSSPSFASSAGPSTAITVSAAAAVAAPQDESIRPFHVSIPEEALTDLRRRLAETRWPDREKVSDASQGVQLDRLEPLVRYWGTDYDWRKGEARLNAVPQFITTIDGLDIQFIHIRSKHKGAMPLLMTHGWPGSPFELLKTVGPLTDPTAHGGKAEDAFDLIMPTYPGYGFSGKPNEAWDPARVARAWDVLMKRLGYKNYVSQGGDWGAIISQVLAVQAPEGLLGIHTNMPGTVPPGVLKLVRAKQPAPDSYSPEEKIAYAGLETFYGKGFGYAEMMNTRPQTLGYGLSDSPVGLAAFLYEKIATWTDSGGNPESVLTRDEILDNITLYWLTNTGTSSSRSYWDAAQGPGGPFNAIEISKVPVAVTVFPGEIYRAPRSWGEKSFKKLIYWNEVDKGGHFAAWEQPELFAAEIRAAFRPLREKK
For B3, which “enantiomer preference in hydrolysis” value [3] is on record?
The value was “not enantioselective”.

What about the “optimum pH” value [4] of the same molecule?
Its value is “neutral pH”.
